Data on 14 molecules can be found in publication PMC12660843, “Using phage display for rational engineering of a higher-affinity humanized 3’ phosphohistidine-specific antibody” (Communications Chemistry, 2025).

*1 amine or outer side, *2 acyl side, *3 side chain or, on linkers, in order; H or OH if unused. Where no end group is shown, it is not given here. [ ]: non-standard residue; d: D form. The star is where a group is joined. 3‑pTza = 3-phosphotriazolyl alanine (also given as 3-phosphoryl-triazolylalanine); 3‑pHis = 3-phosphohistidine, O=C([C@H](Cc1cn(P(=O)(O)O)cn1)N[*:1])[*:2]; Biotin = O=C1N[C@H]2[C@H](CS[C@H]2CCCCC(=O)*)N1; Ahx = NCCCCCC(=O)O

In assay [1] the target is 3-pTza peptide (Biotin-AminocaproicAcid-A.G.A.G.3-pTza.A.G.A.G). Nature of the assay: BLI; biotinylated peptide captured on streptavidin biosensors at 20 nM; IgG in solution at 20-200 nM; Octet HTX; 1x HBS-T, 1% BSA.
The target of assay [2] is T1, 3-pHis peptide (Biotin-AminocaproicAcid-A.G.A.G.H.A.G.A.G phosphorylated by phosphoramidate).
T1 construct: His-peptide, phosphorylated on His5; the phosphoramidate reaction gives a mixture of non-phosphorylated, 1-pHis, 3-pHis and di-pHis peptide; also called Biotinylated ACLYana-3-pHis; ACLYana-pHis; source: synthetic peptide, phosphorylated with potassium phosphoramidate; not shown: biotin, N-terminal, kept
T1 peptide: {Biotin-Ahx}-AGAG[3‑pHis]AGAG
Description: BLI; Octet RED96e; biotinylated peptides captured on streptavidin biosensors at 20 nM; Fab in solution, 20-200 nM; 1x HBS-T, 1% BSA. Background: BLI is a label-free optical method that tracks binding on a fibre tip over time.

Assay [3] has as its target 3-pTza peptide (Biotin-AminocaproicAcid-A.G.A.G.3-pTza.A.G.A.G). The assay is described as above.
Assay [4] concerns the target T2, 3-pTza peptide (Biotin-AminocaproicAcid-A.G.A.G.3-pTza.A.G.A.G).
T2 chain: {Biotin-Ahx}-AGAG[3‑pTza]AGAG
Nature of the assay: BLI; biotinylated peptide captured on streptavidin biosensors at 20 nM; IgG in solution at 20-200 nM; Octet HTX; 1x HBS-T, 1% BSA. To be noted: both partners purified.

The target in assay [5] is T1, 3-pHis peptide …. The assay is described as above. To be noted: both partners purified.
Assay [6] addresses T3, 3-pHis form of the a-subunit of SCS (30 kDa) (Homo sapiens (HEK293T, endogenous), UniProt P53597, 3-phosphohistidine (site not stated)).
T3 construct: alpha subunit of SCS (succinyl-CoA synthetase), 30 kDa band on the immunoblot; source: endogenous, HEK293T lysate
Nature of the assay: immunoblot; HEK293T whole cell lysate, 30 µg, alkaline 12% SDS-PAGE and alkaline blotting at 4 °C; 0.5 µg/mL IgG as primary antibody, 1 h at room temperature; HRP secondary antibody. To be noted: one partner purified. On the technique in general: Immunoblotting shows a protein as a band on a membrane.

Assay [7] concerns the target T4, 3-pHis form of ACLY (120 kDa) (Homo sapiens (HEK293T, endogenous), UniProt P53396, 3-phosphohistidine (site not stated)).
T4 construct: ACLY (ATP-citrate lyase), 120 kDa band on the immunoblot; source: endogenous, HEK293T lysate
The assay is described as above. To be noted: one partner purified.

T3 sequence (P53597 41-346): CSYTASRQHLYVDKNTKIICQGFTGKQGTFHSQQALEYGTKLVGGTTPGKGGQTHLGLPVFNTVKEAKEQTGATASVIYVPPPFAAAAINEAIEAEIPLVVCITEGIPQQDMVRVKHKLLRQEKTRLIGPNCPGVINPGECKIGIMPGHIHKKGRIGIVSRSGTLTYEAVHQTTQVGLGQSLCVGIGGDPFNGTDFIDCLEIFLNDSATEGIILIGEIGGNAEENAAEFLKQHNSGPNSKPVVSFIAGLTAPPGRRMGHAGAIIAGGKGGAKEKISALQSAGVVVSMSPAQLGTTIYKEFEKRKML
T4 sequence (P53396 whole entry): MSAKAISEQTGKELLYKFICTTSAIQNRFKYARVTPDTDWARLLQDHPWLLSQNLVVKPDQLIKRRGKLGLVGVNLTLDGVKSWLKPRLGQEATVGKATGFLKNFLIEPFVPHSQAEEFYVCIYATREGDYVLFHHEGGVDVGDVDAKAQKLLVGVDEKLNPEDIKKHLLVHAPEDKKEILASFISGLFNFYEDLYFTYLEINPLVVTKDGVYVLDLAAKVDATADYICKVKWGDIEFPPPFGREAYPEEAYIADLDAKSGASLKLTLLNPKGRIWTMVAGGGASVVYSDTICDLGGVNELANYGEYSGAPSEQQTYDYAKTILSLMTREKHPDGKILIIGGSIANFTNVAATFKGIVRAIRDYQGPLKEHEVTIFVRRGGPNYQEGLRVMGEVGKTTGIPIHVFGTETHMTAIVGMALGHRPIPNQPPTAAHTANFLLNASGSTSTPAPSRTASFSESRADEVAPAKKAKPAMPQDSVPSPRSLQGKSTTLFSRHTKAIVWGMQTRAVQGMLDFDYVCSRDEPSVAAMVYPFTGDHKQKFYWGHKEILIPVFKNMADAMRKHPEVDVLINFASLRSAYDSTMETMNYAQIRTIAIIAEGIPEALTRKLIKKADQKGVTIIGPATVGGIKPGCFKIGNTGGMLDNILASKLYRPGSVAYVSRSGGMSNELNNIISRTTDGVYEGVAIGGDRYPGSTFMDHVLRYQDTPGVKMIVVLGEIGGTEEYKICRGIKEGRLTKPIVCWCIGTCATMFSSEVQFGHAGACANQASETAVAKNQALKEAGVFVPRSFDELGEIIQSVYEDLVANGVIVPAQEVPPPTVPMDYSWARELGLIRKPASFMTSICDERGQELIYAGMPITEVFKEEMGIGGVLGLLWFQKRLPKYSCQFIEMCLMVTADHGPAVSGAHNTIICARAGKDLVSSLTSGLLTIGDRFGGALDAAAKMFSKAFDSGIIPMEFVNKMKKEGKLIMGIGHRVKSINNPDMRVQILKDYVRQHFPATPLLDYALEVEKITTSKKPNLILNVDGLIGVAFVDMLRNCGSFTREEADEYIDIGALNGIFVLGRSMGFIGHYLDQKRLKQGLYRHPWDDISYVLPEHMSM

B1: hSC44.1 IgG (antibody, V domains shown)
VH: EVQLVESGGGLVQPGGSLRLSCTASGFSIDSYGFSWVRQAPGKGLEHIGYLTAGGRAFYASWAKSRSTITRNTNENTVTLKMNSLRAEDTAVYYCAKLGTGSPIAIWGQGTLVTVSS
VL: DIQMTQSPSSLSASVGDRVTITCRASQSVWRNKNVAWYQQKPGKAPKRLIYAIASLYSGVPSRFSGSGSGTDFTLTISSLQPEDFATYYCVGHYGSENDAYYAFGQGTKVEIK
As usually defined, the Kd is the concentration at which binding is half-saturated. A high value points to a looser complex. By koff is commonly meant the first-order rate constant of dissociation. One may read the kon as the second-order rate constant of association. High values mean fast association, low ones slow association. In assay [1], B1 had a Kd of 0.588 nM, a koff of 8.32e-05 s⁻¹ and a kon of 141000 M⁻¹ s⁻¹.

B2: hSC44.13 IgG (antibody, V domains shown)
VH: EVQLVESGGGLVQPGGSLRLSCTASGFSIDSYGFSWVRQAPGKGLEHIGYLTAGGRAFYASWAKSRSTITRNTNENTVTLKMNSLRAEDTAVYYCAKLGTGSPVAIWG
VL: DIQMTQSPSSLSASVGDRVTITCRASQSVWRNKNVAWYQQKPGKAPKRLIYAIASLYSGVPSRFSGSGSGTDFTLTISSLQPEDFATYYCVGHYGSENDAYYAFGQGTKVEIK
On to B2, for which, in assay [1], the Kd came to 0.405 nM, the off-rate (koff) is 7.37e-05 s⁻¹ and the kon is 182000 M⁻¹ s⁻¹.

B3: hSC44.8 IgG (antibody, V domains shown)
VH: EVQLVESGGGLVQPGGSLRLSCTASGFSIDSYGFSWVRQAPGKGLEHIGYLTAGGRAFYASWAKSRSTITRNTNENTVTLKMNSLRAEDTAVYYCAKIGTGSRVAIWG
VL: DIQMTQSPSSLSASVGDRVTITCRASQSVWRNKNVAWYQQKPGKAPKRLIYAIASLYSGVPSRFSGSGSGTDFTLTISSLQPEDFATYYCVGHYGSENDAYYAFGQGTKVEIK
In assay [1], B3 registered a Kd of 0.185 nM, a koff of 6.66e-05 s⁻¹ and a kon of 359000 M⁻¹ s⁻¹.

B4: hSC44.20.N32Y^L Fab (Fab, V domains shown)
VH: EVQLVESGGGLVQPGGSLRLSCTASGFSIDSYGFSWVRQAPGKGLEHIGYLTAGGRAFYASWAKSRSTITRNTNENTVTLKMNSLRAEDTAVYYCAKLGTGSRFAIWGQGTLVTVSS
VL: DIQMTQSPSSLSASVGDRVTITCRASQSVWRNKYVAWYQQKPGKAPKRLIYAIASLYSGVPSRFSGSGSGTDFTLTISSLQPEDFATYYCVGHYGSENDAYYAFGQGTKVEIK
For the molecule B4, in assay [2], the Kd worked out at 5.11 nM, the koff came out at 0.00066 s⁻¹ and the kon was determined as 129000 M⁻¹ s⁻¹. In assay [3], the Kd was 0.83 nM, the dissociation rate constant (koff) worked out at 0.000186 s⁻¹ and the on-rate constant (kon) was found to be 224000 M⁻¹ s⁻¹.

B5: hSC44.31 IgG (antibody, V domains shown)
VH: EVQLVESGGGLVQPGGSLRLSCTASGFSIDSYGFSWVRQAPGKGLEHIGYLTAGGRAFYASWAKSRSTITRNTNENTVTLKMNSLRAEDTAVYYCAKLGTGTPFAIWGQGTLVTVSS
VL: DIQMTQSPSSLSASVGDRVTITCRASQSVWRNKYVAWYQQKPGKAPKRLIYAIASLYSGVPSRFSGSGSGTDFTLTISSLQPEDFATYYCVGHYGSENDAYYAFGQGTKVEIK
In assay [1], B5 registered a Kd of 2.71 nM, a koff of 3.98e-05 s⁻¹ and a kon of 14700 M⁻¹ s⁻¹.

B6: hSC44.3 IgG (antibody, V domains shown)
VH: EVQLVESGGGLVQPGGSLRLSCTASGFSIDSYGFSWVRQAPGKGLEHIGYLTAGGRAFYASWAKSRSTITRNTNENTVTLKMNSLRAEDTAVYYCAKIGSGSPVAIWG
VL: DIQMTQSPSSLSASVGDRVTITCRASQSVWRNKNVAWYQQKPGKAPKRLIYAIASLYSGVPSRFSGSGSGTDFTLTISSLQPEDFATYYCVGHYGSENDAYYAFGQGTKVEIK
Consider B6, for which, in assay [1], the Kd was determined as 0.352 nM, the koff is 1.43e-05 s⁻¹ and the kon was found to be 40700 M⁻¹ s⁻¹.

B7: hSC44.28 IgG (antibody, V domains shown)
VH: EVQLVESGGGLVQPGGSLRLSCTASGFSIDSYGFSWVRQAPGKGLEHIGYLTAGGRAFYASWAKSRSTITRNTNENTVTLKMNSLRAEDTAVYYCAKLGTGSPLAIWG
VL: DIQMTQSPSSLSASVGDRVTITCRASQSVWRNKFVAWYQQKPGKAPKRLIYAIASLYSGVPSRFSGSGSGTDFTLTISSLQPEDFATYYCVGHYGSENDAYYAFGQGTKVEIK
For B7, in assay [1], the Kd was determined as 1.21 nM, the koff worked out at 3e-05 s⁻¹ and the kon was 24900 M⁻¹ s⁻¹.

B8: hSC44.20 Fab (Fab, V domains shown)
VH: EVQLVESGGGLVQPGGSLRLSCTASGFSIDSYGFSWVRQAPGKGLEHIGYLTAGGRAFYASWAKSRSTITRNTNENTVTLKMNSLRAEDTAVYYCAKLGTGSRFAIWGQGTLVTVSS
VL: DIQMTQSPSSLSASVGDRVTITCRASQSVWRNKNVAWYQQKPGKAPKRLIYAIASLYSGVPSRFSGSGSGTDFTLTISSLQPEDFATYYCVGHYGSENDAYYAFGQGTKVEIK
For the molecule B8, in assay [2], the equilibrium dissociation constant (Kd) came to 17.5 nM, the koff came out at 0.0042 s⁻¹ and the kon stood at 240000 M⁻¹ s⁻¹. Also, in assay [3], the Kd was found to be 0.421 nM, the koff was 0.000103 s⁻¹ and the kon was 245000 M⁻¹ s⁻¹.

B9: hSC44.20.N32F^L Fab (Fab, V domains shown)
VH: EVQLVESGGGLVQPGGSLRLSCTASGFSIDSYGFSWVRQAPGKGLEHIGYLTAGGRAFYASWAKSRSTITRNTNENTVTLKMNSLRAEDTAVYYCAKLGTGSRFAIWGQGTLVTVSS
VL: DIQMTQSPSSLSASVGDRVTITCRASQSVWRNKFVAWYQQKPGKAPKRLIYAIASLYSGVPSRFSGSGSGTDFTLTISSLQPEDFATYYCVGHYGSENDAYYAFGQGTKVEIK
In assay [2], B9 showed a Kd of 6.63 nM, an off-rate constant (koff) of 0.000697 s⁻¹ and a kon of 105000 M⁻¹ s⁻¹. In assay [3], this molecule displayed a Kd of 0.892 nM, a koff of 0.000177 s⁻¹ and an association rate constant (kon) of 199000 M⁻¹ s⁻¹.

B10: hSC44.22 IgG (antibody, V domains shown)
VH: EVQLVESGGGLVQPGGSLRLSCTASGFSIDSYGFSWVRQAPGKGLEHIGYLTAGGRAFYASWAKSRSTITRNTNENTVTLKMNSLRAEDTAVYYCAKLGTGTPVAIWG
VL: DIQMTQSPSSLSASVGDRVTITCRASQSVWRNKNVAWYQQKPGKAPKRLIYAIASLYSGVPSRFSGSGSGTDFTLTISSLQPEDFATYYCVGHYGSENDAYYAFGQGTKVEIK
In assay [1], B10 yielded a Kd of 0.495 nM, a koff of 4.49e-05 s⁻¹ and a kon of 90600 M⁻¹ s⁻¹.

B11: hSC44.20.N32Y^L IgG (antibody, V domains shown)
VH: EVQLVESGGGLVQPGGSLRLSCTASGFSIDSYGFSWVRQAPGKGLEHIGYLTAGGRAFYASWAKSRSTITRNTNENTVTLKMNSLRAEDTAVYYCAKLGTGSRFAIWGQGTLVTVSS
VL: DIQLTQSPSSLSASVGDRVTITCRASQSVWRNKYVAWYQQKPGKAPKRLIYAIASLYSGVPSRFSGSGSGTDFTLTISSLQPEDFATYYCVGHYGSENDAYYAFGQGTKVEIK
notes: human IgG1, kappa light chain
On to B11, for which the figures for the koff in assay [4] and in assay [5] were below 1e-07 s⁻¹ and 2.61e-05 s⁻¹, respectively. For the same molecule, the kon in assay [4] was 35100 M⁻¹ s⁻¹; in assay [5], 8880 M⁻¹ s⁻¹.

B12: hSC44.20.N32F^L IgG (antibody, V domains shown)
VH: EVQLVESGGGLVQPGGSLRLSCTASGFSIDSYGFSWVRQAPGKGLEHIGYLTAGGRAFYASWAKSRSTITRNTNENTVTLKMNSLRAEDTAVYYCAKLGTGSRFAIWGQGTLVTVSS
VL: DIQLTQSPSSLSASVGDRVTITCRASQSVWRNKFVAWYQQKPGKAPKRLIYAIASLYSGVPSRFSGSGSGTDFTLTISSLQPEDFATYYCVGHYGSENDAYYAFGQGTKVEIK
notes: human IgG1, kappa light chain
Turning to B12, in assay [4], binding was put at a Kd of 1.54 nM, the koff was found to be 5.73e-05 s⁻¹ and the kon came out at 37300 M⁻¹ s⁻¹. In assay [5], the Kd stood at 1.68 nM, the koff stood at 1.64e-05 s⁻¹ and the kon was 13900 M⁻¹ s⁻¹.

B13: rSC44 Fab (Fab, V domains shown)
VH: QSVKESGRGLVQPGGSLTLTCTASGFSIDSYGFSWVRQAPGKGLEHIGYLTAGGRAFYASWAKSRSTITRNTNENTVTLKMTSLTAADTATYFCAKLGSGNPVAIWGPGTLVTVSS
VL: QVLTQTPSFTSAAVGGTVTINCQSSQSVWRNKNLAWYQQKPGQPPKRLIYAIATLDSGVPSRFSGSGSGTQFTLTISDVQCDDAATYYCVGHYGSENDAYYAFGGGTEVVVK
In the case of B13, in assay [2], the Kd came to 48.5 nM, the off-rate constant (koff) amounted to 0.00591 s⁻¹ and the association rate constant (kon) was 122000 M⁻¹ s⁻¹. In assay [3], this molecule returned a Kd of 0.668 nM, a koff of 0.000135 s⁻¹ and a kon of 203000 M⁻¹ s⁻¹.

B14: rSC44 IgG (antibody, V domains shown)
VH: QSVKESGRGLVQPGGSLTLTCTASGFSIDSYGFSWVRQAPGKGLEHIGYLTAGGRAFYASWAKSRSTITRNTNENTVTLKMTSLTAADTATYFCAKLGSGNPVAIWGPGTLVTVSS
VL: QVLTQTPSFTSAAVGGTVTINCQSSQSVWRNKNLAWYQQKPGQPPKRLIYAIATLDSGVPSRFSGSGSGTQFTLTISDVQCDDAATYYCVGHYGSENDAYYAFGGGTEVVVK
notes: rabbit SC44-8 IgG heavy chain; rabbit IgG constant region; as the light chain of m9; Rabbit IgG; also called SC44-8; rSC44-8; copies: 2 + 2
As to B14, the binding result in assay [6] and in assay [7] was “binds” in each case.
